{"source": "patent US20170189511A1", "data": [{"molecular_target": "HLA-A*24 (peptide-receptive MHC class I monomer of the UV-ligand exchange assay) (human)", "experiment": "UV-ligand exchange with anti-b2m ELISA", "units": {"peptide exchange yield": "%"}, "values": [{"binder": "VFTRVSSFL", "note": "[Peptide SEQ ID NO: 162 (…)]", "peptide exchange yield": "50 to 75"}, {"binder": "VYRDETGELF", "note": "[Peptide SEQ ID NO: 226 (…)]", "peptide exchange yield": "50 to 75"}, {"binder": "LFIPSSKLLFL", "note": "[Peptide SEQ ID NO: 171 (…)]", "peptide exchange yield": "50 to 75"}, {"binder": "QYLQDAYSF", "note": "[Peptide SEQ ID NO: 272 (…)]", "peptide exchange yield": "> 75"}, {"binder": "YFDKVVTL", "note": "[Peptide SEQ ID NO: 215 (YFDKVVTL)]", "peptide exchange yield": "20 to 49"}, {"binder": "QYSSVFKSL", "note": "[Peptide SEQ ID NO: 216 (…)]", "peptide exchange yield": "> 75"}, {"binder": "GFFIFNERF", "note": "[Peptide SEQ ID NO: 190 (…)]", "peptide exchange yield": "50 to 75"}, {"binder": "EFGSLHLEFL", "note": "[Peptide SEQ ID NO: 194 (…)]", "peptide exchange yield": "< 20"}, {"binder": "YYVESGKLF", "note": "[Peptide SEQ ID NO: 166 (…)]", "peptide exchange yield": "> 75"}, {"binder": "AYTLIAPNI", "note": "[Peptide SEQ ID NO: 169 (…)]", "peptide exchange yield": "50 to 75"}, {"binder": "DYTTWTALL", "note": "[Peptide SEQ ID NO: 165 (…)]", "peptide exchange yield": "> 75"}, {"binder": "KYMVYPQTF", "note": "[Peptide SEQ ID NO: 267 (…)]", "peptide exchange yield": "> 75"}, {"binder": "LYNKGFIYL", "note": "[Peptide SEQ ID NO: 159 (…)]", "peptide exchange yield": "> 75"}, {"binder": "IFPQFLYQF", "note": "[Peptide SEQ ID NO: 186 (…)]", "peptide exchange yield": "> 75"}, {"binder": "VYVSDIQEL", "note": "[Peptide SEQ ID NO: 288 (…)]", "peptide exchange yield": "50 to 75"}, {"binder": "IYLVSIPEL", "note": "[Peptide SEQ ID NO: 161 (…)]", "peptide exchange yield": "> 75"}, {"binder": "DYLKGLASF", "note": "[Peptide SEQ ID NO: 163 (…)]", "peptide exchange yield": "> 75"}, {"binder": "KYPVEWAKF", "note": "[Peptide SEQ ID NO: 289 (…)]", "peptide exchange yield": "> 75"}, {"binder": "IYQLDTASI", "note": "[Peptide SEQ ID NO: 182 (…)]", "peptide exchange yield": "50 to 75"}, {"binder": "TYIESASEL", "note": "[Peptide SEQ ID NO: 279 (…)]", "peptide exchange yield": "50 to 75"}, {"binder": "LYLDIINLF", "note": "[Peptide SEQ ID NO: 181 (…)]", "peptide exchange yield": "> 75"}, {"binder": "FYSRLLQKF", "note": "[Peptide SEQ ID NO: 203 (…)]", "peptide exchange yield": "50 to 75"}, {"binder": "VFKASKITF", "note": "[Peptide SEQ ID NO: 191 (…)]", "peptide exchange yield": "50 to 75"}, {"binder": "VYPWLGALL", "note": "[Peptide SEQ ID NO: 177 (…)]", "peptide exchange yield": "> 75"}, {"binder": "LYLDKATLI", "note": "[Peptide SEQ ID NO: 198 (…)]", "peptide exchange yield": "50 to 75"}, {"binder": "KFVDSTFYL", "note": "[Peptide SEQ ID NO: 282 (…)]", "peptide exchange yield": "> 75"}, {"binder": "YYVYIMNHL", "note": "[Peptide SEQ ID NO: 225 (…)]", "peptide exchange yield": "50 to 75"}, {"binder": "TYIKPISKL", "note": "[Peptide SEQ ID NO: 273 (…)]", "peptide exchange yield": "50 to 75"}, {"binder": "TYTQDFNKF", "note": "[Peptide SEQ ID NO: 208 (…)]", "peptide exchange yield": "50 to 75"}, {"binder": "RYPDNLKHLYL", "note": "[Peptide SEQ ID NO: 280 (…)]", "peptide exchange yield": "> 75"}, {"binder": "IYDDSFIRPVTF", "note": "[Peptide SEQ ID NO: 180 (…)]", "peptide exchange yield": "50 to 75"}, {"binder": "LYIDRPLPYL", "note": "[Peptide SEQ ID NO: 196 (…)]", "peptide exchange yield": "50 to 75"}, {"binder": "TYGDAGLTYTF", "note": "[Peptide SEQ ID NO: 283 (…)]", "peptide exchange yield": "50 to 75"}, {"binder": "WYVNGVNYF", "note": "[Peptide SEQ ID NO: 189 (…)]", "peptide exchange yield": "20 to 49"}, {"binder": "RFHPTPLLL", "note": "[Peptide SEQ ID NO: 193 (…)]", "peptide exchange yield": "> 75"}, {"binder": "YYLEVGKTLI", "note": "[Peptide SEQ ID NO: 211 (…)]", "peptide exchange yield": "> 75"}, {"binder": "IYSWILDHF", "note": "[Peptide SEQ ID NO: 173 (…)]", "peptide exchange yield": "> 75"}, {"binder": "RYPDNLKHL", "note": "[Peptide SEQ ID NO: 286 (…)]", "peptide exchange yield": "20 to 49"}, {"binder": "VFTSTARAF", "note": "[Peptide SEQ ID NO: 183 (…)]", "peptide exchange yield": "50 to 75"}, {"binder": "IYTMIYRNL", "note": "[Peptide SEQ ID NO: 210 (…)]", "peptide exchange yield": "> 75"}, {"binder": "AYLHSHALI", "note": "[Peptide SEQ ID NO: 274 (…)]", "peptide exchange yield": "> 75"}, {"binder": "EYINQGDLHEF", "note": "[Peptide SEQ ID NO: 275 (…)]", "peptide exchange yield": "50 to 75"}, {"binder": "IYKVGAPTI", "note": "[Peptide SEQ ID NO: 185 (…)]", "peptide exchange yield": "50 to 75"}, {"binder": "VYTLDIPVL", "note": "[Peptide SEQ ID NO: 160 (…)]", "peptide exchange yield": "> 75"}, {"binder": "RYISDQLFTNF", "note": "[Peptide SEQ ID NO: 278 (…)]", "peptide exchange yield": "> 75"}, {"binder": "SYALLTYMI", "note": "[Peptide SEQ ID NO: 192 (…)]", "peptide exchange yield": "> 75"}, {"binder": "TYTTVPRVAF", "note": "[Peptide SEQ ID NO: 172 (…)]", "peptide exchange yield": "> 75"}, {"binder": "LYLKLWNLI", "note": "[Peptide SEQ ID NO: 214 (…)]", "peptide exchange yield": "50 to 75"}, {"binder": "LYHDIFSRL", "note": "[Peptide SEQ ID NO: 271 (…)]", "peptide exchange yield": "> 75"}, {"binder": "RYFKGLVF", "note": "[Peptide SEQ ID NO: 188 (RYFKGLVF)]", "peptide exchange yield": "50 to 75"}, {"binder": "HYSQELSLLYL", "note": "[Peptide SEQ ID NO: 158 (…)]", "peptide exchange yield": "> 75"}, {"binder": "QYLENLEKL", "note": "[Peptide SEQ ID NO: 224 (…)]", "peptide exchange yield": "50 to 75"}, {"binder": "MYDSYWRQF", "note": "[Peptide SEQ ID NO: 179 (…)]", "peptide exchange yield": "> 75"}, {"binder": "VYGFQWRHF", "note": "[Peptide SEQ ID NO: 276 (…)]", "peptide exchange yield": "> 75"}, {"binder": "RYLNKAFHI", "note": "[Peptide SEQ ID NO: 284 (…)]", "peptide exchange yield": "50 to 75"}, {"binder": "YYEVHKELF", "note": "[Peptide SEQ ID NO: 175 (…)]", "peptide exchange yield": "> 75"}, {"binder": "EYPLVINTL", "note": "[Peptide SEQ ID NO: 219 (…)]", "peptide exchange yield": "50 to 75"}, {"binder": "TYLRDQHFL", "note": "[Peptide SEQ ID NO: 187 (…)]", "peptide exchange yield": "> 75"}, {"binder": "EYNQWFTKL", "note": "[Peptide SEQ ID NO: 176 (…)]", "peptide exchange yield": "50 to 75"}, {"binder": "KYTSWYVAL", "note": "[Peptide SEQ ID NO: 228 (…)]", "peptide exchange yield": "> 75"}, {"binder": "FFPPTRQMGLLF", "note": "[Peptide SEQ ID NO: 217 (…)]", "peptide exchange yield": "> 75"}, {"binder": "RYSTGLAGNLL", "note": "[Peptide SEQ ID NO: 221 (…)]", "peptide exchange yield": "50 to 75"}, {"binder": "VYEDQVGKF", "note": "[Peptide SEQ ID NO: 170 (…)]", "peptide exchange yield": "20 to 49"}, {"binder": "KFSSFSLFF", "note": "[Peptide SEQ ID NO: 164 (…)]", "peptide exchange yield": "50 to 75"}, {"binder": "VHIPEVYLI", "note": "[Peptide SEQ ID NO: 205 (…)]", "peptide exchange yield": "50 to 75"}, {"binder": "IFIEVFSHF", "note": "[Peptide SEQ ID NO: 178 (…)]", "peptide exchange yield": "50 to 75"}, {"binder": "VFQNFPLLF", "note": "[Peptide SEQ ID NO: 184 (…)]", "peptide exchange yield": "> 75"}, {"binder": "VYVGGGQIIHL", "note": "[Peptide SEQ ID NO: 174 (…)]", "peptide exchange yield": "50 to 75"}, {"binder": "NYINRILKL", "note": "[Peptide SEQ ID NO: 167 (…)]", "peptide exchange yield": "> 75"}, {"binder": "TYSVSFPMF", "note": "[Peptide SEQ ID NO: 195 (…)]", "peptide exchange yield": "> 75"}, {"binder": "KYQDILETI", "note": "[Peptide SEQ ID NO: 168 (…)]", "peptide exchange yield": "> 75"}, {"binder": "IFLDYEAGTLSF", "note": "[Peptide SEQ ID NO: 227 (…)]", "peptide exchange yield": "> 75"}, {"binder": "KYIPYKYVI", "note": "[Peptide SEQ ID NO: 223 (…)]", "peptide exchange yield": "50 to 75"}, {"binder": "EYQENFLSF", "note": "[Peptide SEQ ID NO: 206 (…)]", "peptide exchange yield": "50 to 75"}]}]}
